# T1: Human RNF43 ECD with Fc region fused on its C-terminus (human)
# T1 construct: also called RNF43-Fc
# T1 chain: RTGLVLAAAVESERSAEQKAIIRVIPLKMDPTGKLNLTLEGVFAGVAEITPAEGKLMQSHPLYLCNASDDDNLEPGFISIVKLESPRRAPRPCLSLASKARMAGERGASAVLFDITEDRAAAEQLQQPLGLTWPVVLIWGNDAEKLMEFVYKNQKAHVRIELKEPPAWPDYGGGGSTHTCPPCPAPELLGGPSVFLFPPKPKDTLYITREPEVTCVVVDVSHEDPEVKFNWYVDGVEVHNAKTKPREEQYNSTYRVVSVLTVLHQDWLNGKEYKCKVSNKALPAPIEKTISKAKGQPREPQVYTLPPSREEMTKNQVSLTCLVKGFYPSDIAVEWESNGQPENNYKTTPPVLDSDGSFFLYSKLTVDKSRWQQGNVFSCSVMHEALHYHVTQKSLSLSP
# B1: RNN0207ii with rabbit constant region (antibody)
# heavy: QEQLEESGGRLVTPGGSLTLTCTASGFSLSSYVISWVRQAPGEGLEYIGYVSTGGSPYYASWAKGRFTISRTSTAVDLKMTSLTASDTATYFCARYGYLDYSGLDLWGQGTLVTVSSGQPKAPSVFPLAPCCGDTPSSTVTLGCLVKGYLPEPVTVTWNSGTLTNGVRTFPSVRQSSGLYSLSSVVSVTSSSQPVTCNVAHPATNTKVDKTVAPSTCSKPMCPPPELLGGPSVFIFPPKPKDTLMISRTPEVTCVVVDVSQDDPEVQFTWYINNEQVRTARPPLREQQFNSTIRVVSTLPIAHQDWLRGKEFKCKVHNKALPAPIEKTISKARGQPLEPKVYTMGPPREELSSRSVSLTCMINGFYPSDISVEWEKNGKAEDNYKTTPTVLDSDGSYFLYSKLSVPTSEWQRGDVFTCSVMHEALHNHYTQKSISRSPGK
# light: AQVLTQTPSSTSTAVGGTVTINCQSSQSVYEYNHLSWFQQKPGQPPKLLIYGASTLASGVPSRFKGSGSGTQFTLTISDLECDDAATYYCQGAYYGVVDTFGGGTKVEIKRDPVAPTVLIFPPAADQVATGTVTIVCVANKYFPDVTVTWEVDGTTQTTGIENSKTPQNSADCTYNLSSTLTLTSTQYNSHKEYTCKVTQGTTSVVQSFNRGDC
# B2: RNN0192nn with rabbit constant region (antibody)
# heavy: QEQLVESGGGLVQPEGSLTLTCTASGFSFSSRYYMCWVRQAPGKGLEWIGCIYTGSGSTYYASWAKGRVTISKTSSTTVTLQMTSLTAADTATYFCAREAGSFNLWGPGTLVTVSSGQPKAPSVFPLAPCCGDTPSSTVTLGCLVKGYLPEPVTVTWNSGTLTNGVRTFPSVRQSSGLYSLSSVVSVTSSSQPVTCNVAHPATNTKVDKTVAPSTCSKPMCPPPELLGGPSVFIFPPKPKDTLMISRTPEVTCVVVDVSQDDPEVQFTWYINNEQVRTARPPLREQQFNSTIRVVSTLPIAHQDWLRGKEFKCKVHNKALPAPIEKTISKARGQPLEPKVYTMGPPREELSSRSVSLTCMINGFYPSDISVEWEKNGKAEDNYKTTPTVLDSDGSYFLYSKLSVPTSEWQRGDVFTCSVMHEALHNHYTQKSISRSPGK
# light: DVVMTQTPASVSEPVGGTVTIKCQASQSIYSGLAWYQQKPGQPPKLLIYSASKLASGVPSRFKGSGSGTEYTLTISDLECADAATYYCQNYYYGISNGWTFGGGTKVEIKRDPVAPTVLIFPPAADQVATGTVTIVCVANKYFPDVTVTWEVDGTTQTTGIENSKTPQNSADCTYNLSSTLTLTSTQYNSHKEYTCKVTQGTTSVVQSFNRGDC
# B3: RNN0193jj with rabbit constant region (antibody)
# heavy: QSLEESGGDLVKPGASLTLTCTASGFSFSNNYWICWVRQAPGKGPEWIACIYTGDGDTDYASWAKGRFTISKTSSTTVTLQMTSLTAADTATYFCAREAGTVDGVWNYVFNLWGPGTLVTVSSGQPKAPSVFPLAPCCGDTPSSTVTLGCLVKGYLPEPVTVTWNSGTLTNGVRTFPSVRQSSGLYSLSSVVSVTSSSQPVTCNVAHPATNTKVDKTVAPSTCSKPMCPPPELLGGPSVFIFPPKPKDTLMISRTPEVTCVVVDVSQDDPEVQFTWYINNEQVRTARPPLREQQFNSTIRVVSTLPIAHQDWLRGKEFKCKVHNKALPAPIEKTISKARGQPLEPKVYTMGPPREELSSRSVSLTCMINGFYPSDISVEWEKNGKAEDNYKTTPTVLDSDGSYFLYSKLSVPTSEWQRGDVFTCSVMHEALHNHYTQKSISRSPGK
# light: AQVLTQTPSPVSAAVGGTVTISCQSSQSVYNDNLAWFQQKPGQPPKLLIYDASTLASGVPSRFKGSGSGTQFTLTISKLQCDDAATYYCQGVYIGHIFTFGGGTKVEIKRDPVAPTVLIFPPAADQVATGTVTIVCVANKYFPDVTVTWEVDGTTQTTGIENSKTPQNSADCTYNLSSTLTLTSTQYNSHKEYTCKVTQGTTSVVQSFNRGDC
# B4: RNN0242nn with rabbit constant region (antibody)
# heavy: QQQLEEYGGDLVQPEGSLTLTCKASGLDFSSSYWMCWVRQAPGKGLEWIACIYTGSSGSTSYASWAKGRFTISKTSSTTVTLQMTSLTAADTATYFCARDYDYTAYAYGIMSLWGPGTLVTVSSGQPKAPSVFPLAPCCGDTPSSTVTLGCLVKGYLPEPVTVTWNSGTLTNGVRTFPSVRQSSGLYSLSSVVSVTSSSQPVTCNVAHPATNTKVDKTVAPSTCSKPMCPPPELLGGPSVFIFPPKPKDTLMISRTPEVTCVVVDVSQDDPEVQFTWYINNEQVRTARPPLREQQFNSTIRVVSTLPIAHQDWLRGKEFKCKVHNKALPAPIEKTISKARGQPLEPKVYTMGPPREELSSRSVSLTCMINGFYPSDISVEWEKNGKAEDNYKTTPTVLDSDGSYFLYSKLSVPTSEWQRGDVFTCSVMHEALHNHYTQKSISRSPGK
# light: AEIVMTQTPSSKSAAVGDTVTIKCQASQSITSYLSWYQQKPGQPPKLLIYRASTLASGVPSRFKGSGSGTQFTLTISDLECADAATYYCQSNYGSYSTNYGVTFGGGTKVEIKRDPVAPTVLIFPPAADQVATGTVTIVCVANKYFPDVTVTWEVDGTTQTTGIENSKTPQNSADCTYNLSSTLTLTSTQYNSHKEYTCKVTQGTTSVVQSFNRGDC
# B5: RNN0187jj with rabbit constant region (antibody)
# heavy: QSLEESGGDLVKPGASLTLTCTASGFSFNSAYYMCWVRQAPGKGLEWIGCIYTGSGSTYYASWAKGRFTISKTSSTTVTLQMTSLTVADTATYFCARSGVSTYYTLWGPGTLVTVSSGQPKAPSVFPLAPCCGDTPSSTVTLGCLVKGYLPEPVTVTWNSGTLTNGVRTFPSVRQSSGLYSLSSVVSVTSSSQPVTCNVAHPATNTKVDKTVAPSTCSKPMCPPPELLGGPSVFIFPPKPKDTLMISRTPEVTCVVVDVSQDDPEVQFTWYINNEQVRTARPPLREQQFNSTIRVVSTLPIAHQDWLRGKEFKCKVHNKALPAPIEKTISKARGQPLEPKVYTMGPPREELSSRSVSLTCMINGFYPSDISVEWEKNGKAEDNYKTTPTVLDSDGSYFLYSKLSVPTSEWQRGDVFTCSVMHEALHNHYTQKSISRSPGK
# light: DVVMTQTPSSVSAAVGGTVTIKCQASQSIYSGLAWYQQKPGQPPKLLIYGASTLASGVPSRFKGSGSGTEYTLTISGVQCDDAATYYCQNNYYTPSNGWAFGGGTKVEIKRDPVAPTVLIFPPAADQVATGTVTIVCVANKYFPDVTVTWEVDGTTQTTGIENSKTPQNSADCTYNLSSTLTLTSTQYNSHKEYTCKVTQGTTSVVQSFNRGDC
# B6: RNN0246jj with rabbit constant region (antibody)
# heavy: QSVEESGGRLVTPDETLTLTCTVSGFSLNNYHMIWVRQAPGEGLEYIGFINTGGSAYYANWAKGRFTISKTSTTVDLKITSPTTEDTATYFCASVSWRTDYSFELWGPGTLVTVSSGQPKAPSVFPLAPCCGDTPSSTVTLGCLVKGYLPEPVTVTWNSGTLTNGVRTFPSVRQSSGLYSLSSVVSVTSSSQPVTCNVAHPATNTKVDKTVAPSTCSKPMCPPPELLGGPSVFIFPPKPKDTLMISRTPEVTCVVVDVSQDDPEVQFTWYINNEQVRTARPPLREQQFNSTIRVVSTLPIAHQDWLRGKEFKCKVHNKALPAPIEKTISKARGQPLEPKVYTMGPPREELSSRSVSLTCMINGFYPSDISVEWEKNGKAEDNYKTTPTVLDSDGSYFLYSKLSVPTSEWQRGDVFTCSVMHEALHNHYTQKSISRSPGK
# light: AQVLTQTPSPVSAAVGGTVTISCQASQSVYANNRLAWFQQKPGQPPKLLIYSASTLASGVPSRFKGSGSGTQFTLTISGVQCDDAATYYCAGAYTGNIYTFGGGTKVEIKRDPVAPTVLIFPPAADQVATGTVTIVCVANKYFPDVTVTWEVDGTTQTTGIENSKTPQNSADCTYNLSSTLTLTSTQYNSHKEYTCKVTQGTTSVVQSFNRGDC
# Biological target: T1, Human RNF43 ECD with Fc region fused on …
# Assay: competition ELISA on coated RNF43-Fc; first antibody unlabelled at 10x its EC50, second (reference) antibody biotinylated RNN0193jj at its EC50
# Protocol: (§1) EC50 concentration for the binding of each anti-RNF43 monospecific antibody to RNF43-Fc (described in Example 2) was first determined by ELISA assay, using the biotinylated antibodies. In brief, RNF43-Fc at 5 micro g/mL or 1 micro g/mL was coated on Maxisorp plate (NUNC) at 4 degrees C. overnight. The coated plate was then washed with PBS-T, followed by blocking with Blocking One solution (Nacalai Tesque) for 2 hours at room temperature. Serially diluted, biotinylated anti-RNF43 monospecific antibody was then added and incubated for 1 hour at room temperature. After washing with PBS-T, StAv-HRP (PIERCE) was added and incubated for 1 hour at room temperature. After washing with PBS-T, ABTS Peroxidase substrate (SeraCare Life Sciences) was added and signal intensity was measured using Multiskan™ GO Microplate Spectrophotometer. EC50 concentration for the binding of the anti-RNF43 monospecific antibody to RNF43-Fc was calculated using Non-linear regression 4-parameter fit. The normalized absorbance at 405 nm/570 nm measured when EC50 concentration of anti-RNF43 antibodies was applied is denoted as AO.
# (§2) To evaluate binding competition between the anti-RNF43 monospecific antibodies, ELISA assay with similar setting was conducted. RNF43-Fc was first coated in Maxisorp plate overnight. […] After washing with PBS-T, ABTS Peroxidase substrate was added and signal intensity was measured using Multiskan™ GO Microplate Spectrophotometer. The normalized absorbance at 405 nm/570 nm is denoted as A.
row,binding inhibition (%),Binder
1,1.05,B1
2,0.25,B2
3,50.2,B3
4,12.6,B4
5,2.35,B5
6,1.17,B6

# Biological target: T1, Human RNF43 ECD with Fc region fused on …
# Assay: competition ELISA on coated RNF43-Fc; first antibody unlabelled at 10x its EC50, second (reference) antibody biotinylated RNN0187jj at its EC50
# Protocol: as §1, §2
row,binding inhibition (%),Binder
1,-0.38,B1
2,91,B2
3,3.21,B3
4,11.4,B4
5,30.7,B5
6,12.6,B6

# Biological target: T1, Human RNF43 ECD with Fc region fused on …
# Assay: competition ELISA on coated RNF43-Fc; first antibody unlabelled at 10x its EC50, second (reference) antibody biotinylated RNN0207ii at its EC50
# Protocol: as §1, §2
row,binding inhibition (%),Binder
1,65.9,B1
2,-6.42,B2
3,-1.42,B3
4,1.62,B4
5,1.89,B5
6,-0.14,B6

# Biological target: T1, Human RNF43 ECD with Fc region fused on …
# Assay: competition ELISA on coated RNF43-Fc; first antibody unlabelled at 10x its EC50, second (reference) antibody biotinylated RNN0192nn at its EC50
# Protocol: as §1, §2
row,binding inhibition (%),Binder
1,-3.55,B1
2,88.5,B2
3,-15.2,B3
4,9.66,B4
5,60.6,B5
6,-0.13,B6

# Biological target: T1, Human RNF43 ECD with Fc region fused on …
# Assay: competition ELISA on coated RNF43-Fc; first antibody unlabelled at 10x its EC50, second (reference) antibody biotinylated RNN0246jj at its EC50
# Protocol: as §1, §2
row,binding inhibition (%),Binder
1,-1.38,B1
2,21.9,B2
3,5.04,B3
4,74.7,B4
5,15.1,B5
6,29.8,B6

# Biological target: T1, Human RNF43 ECD with Fc region fused on …
# Assay: competition ELISA on coated RNF43-Fc; first antibody unlabelled at 10x its EC50, second (reference) antibody biotinylated RNN0242nn at its EC50
# Protocol: as §1, §2
row,binding inhibition (%),Binder
1,-0.71,B1
2,45.6,B2
3,21.3,B3
4,86.8,B4
5,22.3,B5
6,22.6,B6
